According to US20160032292, “Aptamer-Guided Gene Targeting” (Georgia Tech Research Corporation, published 2016):

Experiments:
[1] = target: T1, I-SceI homing endonuclease (expressed in HEK-293 from pSce) (UniProt P03882 P03882:1-235); experiment: cell_activity; RFP+ over C.Red.30, hand counts (4-fold by flow cytometry)
T1 sequence: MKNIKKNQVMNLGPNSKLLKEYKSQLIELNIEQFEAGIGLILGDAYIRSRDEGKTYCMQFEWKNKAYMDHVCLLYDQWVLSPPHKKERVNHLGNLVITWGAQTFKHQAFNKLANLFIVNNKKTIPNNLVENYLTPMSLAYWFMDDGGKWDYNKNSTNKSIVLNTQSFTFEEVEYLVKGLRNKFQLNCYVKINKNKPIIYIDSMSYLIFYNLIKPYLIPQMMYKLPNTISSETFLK
Description: (§1) Protocols, 1:1412-1428 (2006)) 24 h before transfection. For transfections in HEK-293 cells, the plasmid DNA was used in the amount of 0.5 μg for the expression vector, as well as 0.5 μg for the targeted vector, and the repairing DNA oligonucleotide used was 1 μg, unless otherwise indicated. For the transfections with I-SceI digested pLDSLm, 0.5 m g of the linearized pLDSLm vector was used with 1 m g of repairing DNA oligonucleotide. Digestion of the pLDSLm vector was done using I-SceI (New England Biolabs, Ipswich, Mass., USA). Ten micrograms of plasmid pLDSLm was digested using 15 U I-SceI, 250 ng bovine serum albumin (BSA), 10×I-SceI buffer (New England Biolabs, Ipswich, Mass., USA) and water to a final volume of 50 μl. Digestions were done overnight at 37° C. In all transfection experiments, the oligonucleotides and the plasmid were diluted in DMEM without supplements, and then PEI was added, the solution was vortexed and added to the wells 10-15 min later. Red fluorescent cells were visualized by fluorescent microscopy using a Zeiss Observer A1 microscope and an AxioCam MRm camera (Zeiss, Thornwood, N.Y., USA). […] For certain transfections, wells of 24-well plates were seeded with 150,000 cells (on the day before transfection) and 5-8 days after transfection individual fluorescent cells per well were counted using a fluorescence microscope just before flow cytometry analysis. […]

[2] = target: T2, I-SceI homing endonuclease (expressed in yeast from GAL1-10 promoter) (UniProt P03882 P03882:1-235); experiment: cell_activity; gene correction over P1-r-P2.TRP5.40; I-SceI induced before transformation
T2 sequence: T1 sequence
Description: Briefly, 50 ml of yeast extract-peptone-lactic acid (YPLac) (lactic acid 2%), pH 5.8, or yeast extract-peptone-dextrose (YPD) liquid culture was inoculated about 24 h before transformation and incubated with vigorous shaking at 30° C. YPLac was used as a neutral carbon source so as not to induce I-SceI expression until plating the transformations to selective galactose-containing media. YPD was used to repress I-SceI expression until plating the transformations to selective glucose-containing media. Transformations were done with 1 nmol of total oligonucleotide DNA, with the exception of the PAGE-purified oligonucleotides in which transformations were done with 500 pmol of total oligonucleotide DNA. For the transformations testing to determine whether the aptamer was working in trans, two oligonucleotides were used, 500 pmol of each oligonucleotide, such that the combined total oligonucleotide DNA used was 1 nmol. Sequences of oligonucleotides used for repair can be found in Table 1. Cells from each transformation were diluted appropriately and plated to synthetic complete medium lacking the respective amino acid and containing 2% galactose for I-SceI induction, 2 or 0.2% galactose for HO induction or 2% glucose for I-SceI or HO repression. […] Viability after transformation was calculated by plating to glucose-containing synthetic complete medium. […]

[3] = target: T1, I-SceI homing endonuclease (expressed …); experiment: cell_activity; RFP+ over C.Red.40, flow cytometry
Description: as §1

B1: A7.Red.30 (ssDNA)
DNA: GCGGGCGCTGTTGACAGCGGTCAGGTGGATGGGATGCAGGACTCCTCCCTGCAGGACGGCTGCTTC
activity [1]: 16 fold

B2: P1-A7-P2.TRP5.40 (ssDNA)
DNA: CTTCTGCCCGCCTCCTTCCGCGGGCGCTGTTGACAGCGGTCAGGTGGATGGGATGGACGAGATAGGCGGACACTGGTTTTGATGAAGCTGTCGCGGATCCCACATTCTGGGAAG
activity [2]: 1.25 fold

B3: A7.Red.40 (ssDNA)
DNA: GCGGGCGCTGTTGACAGCGGTCAGGTGGATGGGATGTGACCCAGGACTCCTCCCTGCAGGACGGCTGCTTCATCTA
activity [3]: 6 fold
